Source: patent US20250304690A1 (HANGZHOU VIROMAB BIOTECH, published 2025)
Substitutions are numbered along the chain they refer to.

B1: CD3 Ab08 (antibody, human IgG1, kappa, V domains shown)
VH: EVQLVESGGGLVQPGGSLRLSCAASGFTFNTYAMNWVRQAPGKGLEWVARIRSKYNNYATYYADSVKDRFTISRDDSKNILYLQMNSLKTEDTAVYYCVRHGNFGNSYVSWFAYWGQGTLVTVSA
VL: QAVVTQEPSLTVSPGGTVTLTCRSSTGAVTTSNYANWVQQKPGQAPRGLIGGTNKRAPWTPARFSGSLLGGKAALTITGAQTEDEAEYYCALWYSNLWVFGGGTKLTVLR
notes: also called humanized anti-CD3 monoclonal antibody
B2: CD3 Ab09 (antibody, human IgG1, kappa, V domains shown)
VH: B1 VH
VL: B1 VL with T60V, G71D, I77L, T78S
notes: as for B1
B3: CD3 Ab12 (antibody, human IgG1, kappa, V domains shown)
VH: B1 VH with V95M
VL: B1 VL with I77L, T78S
notes: as for B1
B4: CD3 Ab13 (antibody, human IgG1, kappa, V domains shown)
VH: B1 VH with V95M
VL: B1 VL
notes: as for B1
B5: CD3 Ab10 (antibody, human IgG1, kappa, V domains shown)
VH: B1 VH
VL: B1 VL with Q40E, T60V, G71D, I77L, T78S
notes: as for B1
B6: CD3 Ab11 (antibody, human IgG1, kappa, V domains shown)
VH: B1 VH with V95M
VL: B1 VL with I77L, T78S, T82P
notes: as for B1
B7: CD3 Ab14 (antibody, human IgG1, kappa, V domains shown)
VH: B1 VH with V95M
VL: B1 VL with T60V, G71D, I77L, T78S
notes: as for B1
B8: CD3 Ab15 (antibody, human IgG1, kappa, V domains shown)
VH: B1 VH with V95M
VL: B1 VL with Q40E, T60V, G71D, I77L, T78S
notes: as for B1
B9: BK-A-101 (bispecific antibody, human IgG1, kappa)
heavy: not shown
light: QAVVTQESALTTSPGETVTLTCRSSTGAVTTSNYANWVQEKPDHLFTGLIGGTNKRAPGVPARFSGSLIGDKAALTITGAQTEDEAIYFCALWYSNLWVFGGGTKLTVLRTVAAPSVFIFPPSDEQLKSGTASVVCLLNNFYPREAKVQWKVDNALQSGNSQESVTEQDSKDSTYSLSSTLTLSKADYEKHKVYACEVTHQGLSSPVTKSFNRGEC
notes: also called bispecific antibody; the bispecific antibody
B10: BK-D-08 (bispecific antibody, human IgG1, kappa)
heavy: QVQLVQSGAEVKKPGASVKVSCKASGYTFTNYYMKWVKQAPGQRLEWMGDLNPNNGDTFYNQKFKGRVTITVDKSASTAYMELSSLRSEDTAVYYCARTGRYEENAMDYWGQGTLVTVSSASTKGPSVFPLAPSSKSTSGGTAALGCLVKDYFPEPVTVSWNSGALTSGVHTFPAVLQSSGLYSLSSVVTVPSSSLGTQTYICNVNHKPSNTKVDKRVEPKSCDKTHTCPPCPAPEFEGGPSVFLFPPKPKDTLMISRTPEVTCVVVDVSHEDPEVKFNWYVDGVEVHNAKTKPREEQYNSTYRVVSVLTVLHQDWLNGKEYKCKVSNKALPASIEKTISKAKGQPREPQVYTLPPSREEMTKNQVSLTCLVKGFYPSDIAVEWESNGQPENNYKTTPPVLDSDGSFFLYSKLTVDKSRWQQGNVFSCSVMHEALHNHYTQKSLSLSPGKGGGGSGGGGSGGGGSQAVVTQEPSLTVSPGGTVTLTCRSSTGAVTTSNYANWVQQKPGQAPRGLIGGTNKRAPWTPARFSGSLLGGKAALTLSGAQPEDEAEYYCALWYSNLWVFGGGTKLTVLGGGGSGGGGSGGGGSEVQLVESGGGLVQPGGSLRLSCAASGFTFNTYAMNWVRQAPGKGLEWVARIRSKYNNYATYYADSVKDRFTISRDDSKNILYLQMNSLKTEDTAMYYCVRHGNFGNSYVSWFAYWGQGTLVTVSA
light: DIVLTQSPASLAVSPGQRATITCRASESVDSYGKSFMHWYQQKPGQPPKLLIYRASNLESGVPARFSGSGSRTDFTLTINPVEANDTANYYCQQNNEDPWTFGQGTKLEIKRTVAAPSVFIFPPSDEQLKSGTASVVCLLNNFYPREAKVQWKVDNALQSGNSQESVTEQDSKDSTYSLSSTLTLSKADYEKHKVYACEVTHQGLSSPVTKSFNRGEC
B11: BK-D-12 (bispecific antibody, human IgG1, kappa)
heavy: B10 heavy
light: B10 light with I2L, L4M, Q42L
B12: BK-D-02 (bispecific antibody, human IgG1, kappa)
heavy: B10 heavy with R44S, M48I, R67K, V68A, I70L, S84N
light: B10 light with I2L, L4M, Q42L
B13: BK-D-07 (bispecific antibody, human IgG1, kappa)
heavy: B10 heavy with R44S, M48I, R67K, V68A, I70L, S84N
light: B10 light
B14: BK-D-06 (bispecific antibody, human IgG1, kappa)
heavy: B10 heavy with Q505E, T525V, G536D, P547T, M684V
light: B10 light
B15: BK-D-09 (bispecific antibody, human IgG1, kappa)
heavy: B10 heavy with P547T, M684V
light: B10 light
B16: BK-D-05 (bispecific antibody, human IgG1, kappa)
heavy: B10 heavy with L542I, S543T, P547T, M684V
light: B10 light
B17: BK-D-03 (bispecific antibody, human IgG1, kappa)
heavy: B10 heavy with I669S, M684V
light: B10 light with I2L, L4M, Q42L
B18: BK-D-10 (bispecific antibody, human IgG1, kappa)
heavy: B10 heavy with R44S, M48I, R67K, V68A, I70L, S84N, I669S, M684V
light: B10 light with I2L, L4M, Q42L
B19: BK-D-04 (bispecific antibody, human IgG1, kappa)
heavy: B10 heavy with T525V, G536D, P547T, I669S, M684V
light: B10 light
B20: BK-D-11 (bispecific antibody, human IgG1, kappa)
heavy: B10 heavy with I669S, M684V
light: B10 light
B21: BK-D-01 (bispecific antibody, human IgG1, kappa)
heavy: B10 heavy with R44S, M48I, R67K, V68A, I70L, S84N, I669S, M684V
light: B10 light

target: hCD3 (human CD3 antigen) (human, UniProt P07766 23-126); experiment: ELISA, plate-coated hCD3
Sequence (P07766 23-126): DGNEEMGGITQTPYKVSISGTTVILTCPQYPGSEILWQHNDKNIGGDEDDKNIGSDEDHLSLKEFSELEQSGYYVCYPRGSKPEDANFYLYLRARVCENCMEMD
Description: The activity of the prepared humanized antibodies was assessed by ELISA as follows: hCD3 (human CD3 antigen) was diluted to 0.5 g/mL using a coating solution and then added to a 96-well plate at 100 μL/well, and the plate was incubated overnight at 4° C. The plate was washed with PBST. Then 200 µL of a blocking solution was added to each well, and blocking was performed at a temperature of 37° C. for 2 h. The plate was washed with PBST. Then diluted antibodies (the initial concentration was 40 nM, and serial dilution was performed in a 1:6 ratio) were added at 100 L/well, and the plate was incubated at a temperature of 37° C. for 2 h. The plate was washed with PBST. Then an HRP-labeled goat anti-human IgG was added at 100 L/well, and the plate was incubated at 37° C. for 1 h. The plate was washed with PBST, and TMB was added at 100 L/well. Color development was performed at 37° C. for 10-20 min, and 50 µL of 2 M H₂SO₄ was added to each well to stop the reaction. Readings were taken at 450 nm.

Row | Binder | EC50 [pM]
1 | B1 | 11.6
2 | B2 | 8
3 | B3 | 9.5
4 | B4 | 9.9
5 | B5 | 2
6 | B6 | 11.8
7 | B7 | 8.7
8 | B8 | 9.9

target: T1, CD3 on Jurkat cells and on human T cells (human, UniProt P07766 23-207); experiment: flow cytometry on Jurkat cells
T1 construct: whole, on cells; also called CD3 end; CD3 antigen
T1 sequence (P07766 23-207): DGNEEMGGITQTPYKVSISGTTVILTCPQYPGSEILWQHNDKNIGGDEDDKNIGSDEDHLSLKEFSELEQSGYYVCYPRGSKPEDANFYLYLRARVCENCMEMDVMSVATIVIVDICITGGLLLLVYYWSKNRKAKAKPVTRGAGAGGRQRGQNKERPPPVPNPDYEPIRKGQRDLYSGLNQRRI
Description: (§1) Then diluted antibodies with different concentrations were added. The cells were incubated at 4° C. for 0.5 h, centrifuged at 1200 rpm for 3-5 min, and washed with a FACS buffer. Then a goat anti-human IgG secondary antibody (manufacturer: Abcam, ab98596) was added at 100 L/well. The cells were incubated at 4° C. for 0.5 h, centrifuged at 1200 rpm for 3-5 min, washed with a FACs buffer, and resuspended in 50 μL of a FACs buffer, and assays were performed using a flow cytometer.

Row | Binder | EC50 [nM]
9 | B1 | 1.82
10 | B2 | 0.862
11 | B3 | 3.52
12 | B4 | 3.19
13 | B5 | 0.784
14 | B6 | 4.45
15 | B7 | 1.14
16 | B8 | 1.11

target: CD3 on 293T-CD3 cells; experiment: flow cytometry on 293T-CD3 cells
Sequence (chain, as listed by the source): as the sequence (P07766 23-207) above
Description: as §1

Row | Binder | EC50 [nM]
17 | B1 | 4.24
18 | B2 | 4.4
19 | B3 | 15.8
20 | B4 | 12.4
21 | B5 | 2.44
22 | B6 | 21.6
23 | B7 | 5.73
24 | B8 | 3.48

target: T1, CD3 on Jurkat cells and on human T cells; experiment: flow cytometry on Jurkat cells; remark: another data set of the same source
Description: Jurkat cells were plated, washed with a FACS buffer, and centrifuged at 1200 rpm for 3-5 min. Then diluted antibodies with different concentrations were added at 100 L/well. The cells were incubated at 4° C. for 0.5 h, centrifuged at 1200 rpm for 3-5 min, and washed with a FACS buffer. Then a diluted goat anti-human IgG (FITC, Abcam/ab97224) antibody was added. The cells were incubated at 4° C. for 0.5 h, centrifuged at 1200 rpm for 3-5 min, washed with a FACS buffer, and resuspended in 50 μL of a FACs buffer, and assays were performed using a flow cytometer.

Row | Binder | EC50 [nM]
25 | B9 | 0.8
26 | B10 | 136
27 | B11 | 80.6
28 | B12 | 80.3
29 | B13 | 49.4
30 | B14 | 32.6
31 | B15 | 97.8
32 | B16 | 71.4
33 | B17 | 111
34 | B18 | 143
35 | B19 | 18.2
36 | B20 | 169
37 | B21 | 62.5

target: TT3 labeling polypeptide on cells; experiment: flow cytometry on HCT116-TT3 cells
Sequence (P01732 other isoform, or with tags, fused parts or gaps limits assumed): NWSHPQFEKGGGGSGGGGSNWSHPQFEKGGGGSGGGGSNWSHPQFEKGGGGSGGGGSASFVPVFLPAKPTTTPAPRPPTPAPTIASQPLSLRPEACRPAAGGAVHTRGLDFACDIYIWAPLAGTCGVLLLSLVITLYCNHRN

Row | Binder | EC50 [nM]
38 | B9 | 15.8
39 | B10 | 0.368
40 | B11 | 0.523
41 | B12 | 0.099
42 | B13 | 0.127
43 | B14 | 0.908
44 | B16 | 1.04
45 | B17 | 0.464
46 | B18 | 0.248
47 | B19 | 0.47
48 | B20 | 0.336
49 | B21 | 0.07
